From US20040018487A1

Target: HPV 16 E6 C-terminal PL peptide (TQL), biotinylated (HPV 16)
Experiment: G assay, HPV16 E6 PL peptide titrated against a constant amount of GST-PDZ

Chain of GST-SAST1 KIAA PDZ domain (Q9Y2H9 other isoform, or with tags, fused parts or gaps): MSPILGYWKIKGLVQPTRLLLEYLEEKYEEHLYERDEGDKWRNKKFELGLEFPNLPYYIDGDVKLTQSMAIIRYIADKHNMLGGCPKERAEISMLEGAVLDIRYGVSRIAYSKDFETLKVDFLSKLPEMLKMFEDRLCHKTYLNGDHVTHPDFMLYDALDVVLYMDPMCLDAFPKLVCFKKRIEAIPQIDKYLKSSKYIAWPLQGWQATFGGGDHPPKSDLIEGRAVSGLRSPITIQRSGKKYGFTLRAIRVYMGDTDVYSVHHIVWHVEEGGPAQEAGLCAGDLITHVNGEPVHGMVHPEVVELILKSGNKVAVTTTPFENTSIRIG
Chain of GST-DLG3 PDZ domains 1-2 (Q92796 other isoform, or with tags, fused parts or gaps limits assumed): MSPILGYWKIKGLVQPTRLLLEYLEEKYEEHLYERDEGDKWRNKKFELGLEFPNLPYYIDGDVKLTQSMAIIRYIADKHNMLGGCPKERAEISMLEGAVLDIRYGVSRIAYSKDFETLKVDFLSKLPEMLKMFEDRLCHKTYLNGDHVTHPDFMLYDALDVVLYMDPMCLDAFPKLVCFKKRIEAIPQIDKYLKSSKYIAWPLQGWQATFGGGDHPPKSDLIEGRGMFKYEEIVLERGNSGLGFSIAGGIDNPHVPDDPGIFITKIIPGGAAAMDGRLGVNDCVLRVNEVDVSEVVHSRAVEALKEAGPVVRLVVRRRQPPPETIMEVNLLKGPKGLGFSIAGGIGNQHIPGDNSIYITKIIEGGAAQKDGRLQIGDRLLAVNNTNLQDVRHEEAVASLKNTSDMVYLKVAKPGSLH
Chain of GST-Magi3 PDZ domain 1 (Q5TCQ9 other isoform, or with tags, fused parts or gaps limits assumed): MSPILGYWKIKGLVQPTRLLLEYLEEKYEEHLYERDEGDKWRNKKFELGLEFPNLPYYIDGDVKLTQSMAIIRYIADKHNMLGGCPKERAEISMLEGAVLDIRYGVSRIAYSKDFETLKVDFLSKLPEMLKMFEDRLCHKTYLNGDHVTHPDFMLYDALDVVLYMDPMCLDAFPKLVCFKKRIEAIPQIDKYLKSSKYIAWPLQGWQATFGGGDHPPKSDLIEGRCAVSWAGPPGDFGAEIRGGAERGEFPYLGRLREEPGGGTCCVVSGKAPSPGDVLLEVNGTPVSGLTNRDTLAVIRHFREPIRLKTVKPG

GST-DLG2 PDZ domain 3 was tested. Which EC50 did it give?
The EC50 was 1600 nM.

For “GST-DLG3 PDZ domains 1-2 (from UniProt Q92796 125-316)”, which EC50 is on record?
The EC50 was 3800 nM.

GST-MAGI1 PDZ domain 2 was tested. Which EC50 did it give?
Its EC50 is 56 nM.

For “GST-Magi3 PDZ domain 1 (from UniProt Q5TCQ9 18-106)”, which EC50 is on record?
The EC50 was 310 nM.

With “GST-SAST1 KIAA PDZ domain (from UniProt Q9Y2H9 960-1062)” as the substance, how does the EC50 read?
Its EC50 is 580 nM.

Which EC50 does the source give for GST-SAST2 PDZ domain here?
Its EC50 is 1200 nM.

GST-SIP1 PDZ domain 1 was tested. Which EC50 did it give?
The EC50 was 7500 nM.

For “GST-VARTUL (PDZ domain not stated) (from UniProt Q14160 720-955)”, which EC50 is on record?
Its EC50 is 940 nM.
